In patent publication US20210246166A1 (Bayer, published 2021):
Numbered stars: 1 amine (or outer) side, 2 acyl side, 3 side chain; on linkers, the order of the positions; unused ones are H or OH. Bridge positions count the residues as written; N and C are the ends. Square brackets hold non-standard residues; d marks the D form. Primed or numbered codes have the meaning given here. Ends that are not written are not given here. * marks the point of attachment. Phe(2,3-F2) = (2S)-3-(2,3-difluorophenyl)-2-aminopropanoic acid, O=C([C@H](Cc1cccc(F)c1F)N[*:1])[*:2]; TTDS = 1,13-diamino-4,7,10-trioxatridecan-succinamic acid, O=C(CCC(=O)[*:2])NCCCOCCOCCOCCCN[*:1]; X3 = (1R,3S)‑3‑(Amino)cyclopentanecarboxylic acid, O=C([C@@H]1CC[C@H](N[*:1])C1)[*:2]; X8 = (R)‑4‑Amino‑6‑methylheptanoic acid, CC(C)C[C@@H](CCC(=O)[*:2])N[*:1]; Tranexamic″ = tranexamic acid, NC[C@H]1CC[C@@H](C(=O)*)CC1; Ida = iminodiacetic acid, O=C(CN(CC(=O)[*:3])[*:1])[*:2]; His(τ-Bzl) = N[C@@H](Cc1cn(Cc2ccccc2)cn1)C(=O)O; Pro(4-spirocPr) = O=C(O)[C@@H]1CC2(CC2)CN1; Oic = O=C(O)[C@@H]1C[C@@H]2CCCC[C@@H]2N1; PEG8 = NCCOCCOCCOCCOCCOCCOCCOCCOCCC(=O)O; tBuAla = CC(C)(C)C[C@H](N)C(=O)O; PEG5 = NCCOCCOCCOCCOCCOCCC(=O)O; (3-Me)H = L-3-methylhistidine; Pen = CC(C)(S)[C@H](N)C(=O)O; Tranexamic = tranexamic acid; NMeA = CN[C@@H](C)C(=O)O; Orn = NCCC[C@H](N)C(=O)O; Nva = CCC[C@H](N)C(=O)O; Sar = CNCC(=O)O

T1: recombinant human MASP1 active protease (amino acids 297-699, C-terminal His Tag) (human, UniProt P48740 297-699)
T1 sequence: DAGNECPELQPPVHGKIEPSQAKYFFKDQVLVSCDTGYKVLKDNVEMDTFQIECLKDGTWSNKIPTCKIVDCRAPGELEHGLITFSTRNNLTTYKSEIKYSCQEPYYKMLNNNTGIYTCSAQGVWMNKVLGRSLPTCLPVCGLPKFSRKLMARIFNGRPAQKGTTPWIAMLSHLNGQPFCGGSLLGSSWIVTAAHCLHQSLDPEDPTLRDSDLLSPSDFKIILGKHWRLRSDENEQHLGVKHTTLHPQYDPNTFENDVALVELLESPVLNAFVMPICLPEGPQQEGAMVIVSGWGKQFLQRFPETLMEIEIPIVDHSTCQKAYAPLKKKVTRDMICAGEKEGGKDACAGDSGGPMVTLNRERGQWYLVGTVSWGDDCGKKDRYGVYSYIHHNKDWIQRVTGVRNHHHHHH


How the values were obtained:
[1] = target: T1, recombinant human MASP1 active protease …; assay: cell-based or functional assay
[2] = target: recombinant human MASP2 active protease (amino acids 297-686, C-terminal His Tag) (human, UniProt O00187 297-686); assay: cell-based or functional assay
Chain of recombinant human MASP2 active protease (amino acids 297-686, C-terminal His Tag) (O00187 other isoform, or with tags, fused parts or gaps limits assumed): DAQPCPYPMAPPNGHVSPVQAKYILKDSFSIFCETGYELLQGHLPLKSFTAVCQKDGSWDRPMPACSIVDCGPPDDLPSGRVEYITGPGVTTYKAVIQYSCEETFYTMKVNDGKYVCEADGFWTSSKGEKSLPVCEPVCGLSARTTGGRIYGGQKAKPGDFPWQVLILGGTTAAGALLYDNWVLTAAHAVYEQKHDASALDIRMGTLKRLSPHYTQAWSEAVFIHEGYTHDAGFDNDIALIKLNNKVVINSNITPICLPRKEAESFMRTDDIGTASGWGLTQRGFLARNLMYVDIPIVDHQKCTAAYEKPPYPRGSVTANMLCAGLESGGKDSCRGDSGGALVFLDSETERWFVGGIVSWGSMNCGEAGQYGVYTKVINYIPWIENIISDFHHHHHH

Row | Binder | human MASP1 IC50 [1] | human MASP2 IC50 [2]
1 | [Sar]ICSRSLP[Oic]I[Pen]IP[Ida]-OH (disulfide 3-11) [Example 446: ((N-Me)G)-IC+SRSLP-(Oic)-I-(Pen)+IP-(Ida)-OH] | 2.7 nM | 72 nM
2 | [Sar]ICSRS[tBuAla]P[Pro(4-spirocPr)]I[Pen]IP-NH2 (disulfide 3-11; N-terminus assumed; SMILES CC[C@H](C)[C@H](NC(=O)CNC)C(=O)N[C@H]1CSSC(C)(C)[C@@H](C(=O)N[C@H](C(=O)N2CCC[C@H]2C(N)=O)[C@@H](C)CC)NC(=O)[C@H]([C@@H](C)CC)NC(=O)[C@@H]2CC3(CC3)CN2C(=O)[C@@H]2CCCN2C(=O)[C@H](CC(C)(C)C)NC(=O)[C@H](CO)NC(=O)[C@H](CCCNC(=N)N)NC(=O)[C@H](CO)NC1=O) | 3.2 nM | 15 nM
3 | {Tranexamic″}-ICSRS[tBuAla]PPI[Pen]IP-{PEG8-NH2} (disulfide 2-10; SMILES CC[C@H](C)[C@@H]1NC(=O)[C@@H]2CCCN2C(=O)[C@@H]2CCCN2C(=O)[C@H](CC(C)(C)C)NC(=O)[C@H](CO)NC(=O)[C@H](CCCNC(=N)N)NC(=O)[C@H](CO)NC(=O)[C@@H](NC(=O)[C@@H](NC(=O)[C@H]2CC[C@@H](CN)CC2)[C@@H](C)CC)CSSC(C)(C)[C@@H](C(=O)N[C@H](C(=O)N2CCC[C@H]2C(=O)NCCOCCOCCOCCOCCOCCOCCOCCOCCC(N)=O)[C@@H](C)CC)NC1=O) [Example 427: (Tranexamic)-IC+SRS-((tBu)A)-PPI-(Pen)+IP-(PEG8(28 atoms))-NH2] | 10 nM | 15 nM
4 | [Sar]ICSRSLP[Oic]I[Pen]IP[(2S)‑3‑(Triazol-1-yl)‑2‑(amino)propanoic acid]-NH2 (disulfide 3-11) [Example 437: ((N-Me)G)-IC+SRSLP-(Oic)-I-(Pen)+IP-((2S)-3-(Triazol-1-yl)-2-(amino)propanoic acid)-NH2] | 2.2 nM | 76 nM
5 | [NMeA]ICSRS[tBuAla]P[(3R,6R)‑1,1‑Difluoro‑5‑azaspiro(2.4)heptane‑6‑carboxylic acid (enantiomer 2)]I[Pen]IP-NH2 (disulfide 3-11) | 3 nM | 300 nM
6 | [Sar]ICSRS[Phe(2,3-F2)]P[Oic]I[Pen]IP-NH2 (disulfide 3-11; N-terminus assumed; SMILES CC[C@H](C)[C@H](NC(=O)CNC)C(=O)N[C@H]1CSSC(C)(C)[C@@H](C(=O)N[C@H](C(=O)N2CCC[C@H]2C(N)=O)[C@@H](C)CC)NC(=O)[C@H]([C@@H](C)CC)NC(=O)[C@@H]2C[C@@H]3CCCC[C@@H]3N2C(=O)[C@@H]2CCCN2C(=O)[C@H](Cc2cccc(F)c2F)NC(=O)[C@H](CO)NC(=O)[C@H](CCCNC(=N)N)NC(=O)[C@H](CO)NC1=O) | 65 nM | 220 nM
7 | [NMeA]ICSRS[tBuAla]P[(3R,6R)‑1,1‑Difluoro‑5‑azaspiro(2.4)heptane‑6‑carboxylic acid (enantiomer 1)]I[Pen]IP-NH2 (disulfide 3-11) | 0.78 nM | 74 nM
8 | [Sar]ICSRS[tBuAla]PPI[Pen]IPD[Sar][Sar][Sar]-NH2 (disulfide 3-11; N-terminus assumed; SMILES CC[C@H](C)[C@H](NC(=O)CNC)C(=O)N[C@H]1CSSC(C)(C)[C@@H](C(=O)N[C@H](C(=O)N2CCC[C@H]2C(=O)N[C@@H](CC(=O)O)C(=O)N(C)CC(=O)N(C)CC(=O)N(C)CC(N)=O)[C@@H](C)CC)NC(=O)[C@H]([C@@H](C)CC)NC(=O)[C@@H]2CCCN2C(=O)[C@@H]2CCCN2C(=O)[C@H](CC(C)(C)C)NC(=O)[C@H](CO)NC(=O)[C@H](CCCNC(=N)N)NC(=O)[C@H](CO)NC1=O) [Example 433: ((N-Me)G)-IC+SRS-((tBu)A)-PPI-(Pen)+IPD-((N-Me)G)-((N-Me)G)-((N-Me)G)-NH2] | 1.7 nM | 120 nM
9 | [Sar]ICRRS[tBuAla]PP[Nva][Pen]IP-NH2 (disulfide 3-11; N-terminus assumed; SMILES CCC[C@@H]1NC(=O)[C@@H]2CCCN2C(=O)[C@@H]2CCCN2C(=O)[C@H](CC(C)(C)C)NC(=O)[C@H](CO)NC(=O)[C@H](CCCNC(=N)N)NC(=O)[C@H](CCCNC(=N)N)NC(=O)[C@@H](NC(=O)[C@@H](NC(=O)CNC)[C@@H](C)CC)CSSC(C)(C)[C@@H](C(=O)N[C@H](C(=O)N2CCC[C@H]2C(N)=O)[C@@H](C)CC)NC1=O) [Example 448: ((N-Me)G)-IC+RRS-((tBu)A)-PP-(Nva)-(Pen)+IP-NH2] | 440 nM | 1000 nM
10 | [Sar]ICSRS[tBuAla]PPI[Pen]IP[Orn][Orn][Orn]-NH2 (disulfide 3-11; N-terminus assumed; SMILES CC[C@H](C)[C@H](NC(=O)CNC)C(=O)N[C@H]1CSSC(C)(C)[C@@H](C(=O)N[C@H](C(=O)N2CCC[C@H]2C(=O)N[C@@H](CCCN)C(=O)N[C@@H](CCCN)C(=O)N[C@@H](CCCN)C(N)=O)[C@@H](C)CC)NC(=O)[C@H]([C@@H](C)CC)NC(=O)[C@@H]2CCCN2C(=O)[C@@H]2CCCN2C(=O)[C@H](CC(C)(C)C)NC(=O)[C@H](CO)NC(=O)[C@H](CCCNC(=N)N)NC(=O)[C@H](CO)NC1=O) [Example 430: ((N-Me)G)-IC+SRS-((tBu)A)-PPI-(Pen)+IP-(Orn)-(Orn)-(Orn)-NH2] | 1.4 nM | 91 nM

Next, values leading:

Row | human MASP1 IC50 [1] | human MASP2 IC50 [2] | Binder
11 | 2.9 nM | 83 nM | [Sar]ICSRSLP[Oic]I[Pen]IP[5‑Azaspiro(2.4)heptane‑1‑carboxylic acid]-OH (disulfide 3-11) [Example 438: ((N-Me)G)-IC+SRSLP-(Oic)-I-(Pen)+IP-((5-Azaspiro[2.4]heptane-1-carboxylic acid)-OH]
12 | 9.2 nM | 17 nM | [Tranexamic]ICSRS[tBuAla]PPI[Pen]IP[PEG5]-NH2 (disulfide 3-11) [Example 435: (Tranexamic)-IC+SRS-((tBu)A)-PPI-(Pen)+IP-(PEG4(19 atoms))-NH2]
13 | 18 nM | 26 nM | [Sar]ICSRS[Phe(2,3-F2)]PPI[Pen]IP-NH2 (disulfide 3-11; N-terminus assumed; SMILES CC[C@H](C)[C@H](NC(=O)CNC)C(=O)N[C@H]1CSSC(C)(C)[C@@H](C(=O)N[C@H](C(=O)N2CCC[C@H]2C(N)=O)[C@@H](C)CC)NC(=O)[C@H]([C@@H](C)CC)NC(=O)[C@@H]2CCCN2C(=O)[C@@H]2CCCN2C(=O)[C@H](Cc2cccc(F)c2F)NC(=O)[C@H](CO)NC(=O)[C@H](CCCNC(=N)N)NC(=O)[C@H](CO)NC1=O) [Example 440: ((N-Me)G)-IC+SRS-((2S)-3-(2,3-difluorophenyl)-2-aminopropanoic acid)-PPI-(Pen)+IP-NH2]
14 | 2.3 nM | 44 nM | [Sar]ICSRSLP[Oic]I[Pen]IPP[(2S)‑3‑(Triazol-1-yl)‑2‑(amino)propanoic acid]-NH2 (disulfide 3-11)
15 | 2.8 nM | 61 nM | [(3-Me)H]ICSRSLP[Oic]I[Pen]IP-NH2 (disulfide 3-11) [Example 444: ((3-Me)H)-IC+SRSLP-(Oic)-I-(Pen)+IP-NH2]
16 | 1.8 nM | 93 nM | [Sar]ICSRSLP[Oic]I[Pen]IP[X3]-OH (disulfide 3-11; N-terminus assumed; SMILES CC[C@H](C)[C@H](NC(=O)CNC)C(=O)N[C@H]1CSSC(C)(C)[C@@H](C(=O)N[C@H](C(=O)N2CCC[C@H]2C(=O)N[C@H]2CC[C@@H](C(=O)O)C2)[C@@H](C)CC)NC(=O)[C@H]([C@@H](C)CC)NC(=O)[C@@H]2C[C@@H]3CCCC[C@@H]3N2C(=O)[C@@H]2CCCN2C(=O)[C@H](CC(C)C)NC(=O)[C@H](CO)NC(=O)[C@H](CCCNC(=N)N)NC(=O)[C@H](CO)NC1=O) [Example 449: ((N-Me)G)-IC+SRSLP-(Oic)-I-(Pen)+IP-((1R,3S)-3-(Amino)cyclopentanecarboxylic acid)-OH]
17 | 4.7 nM | 65.5 nM | [Sar]ICSRS[tBuAla]PPI[Pen]IP[His(τ-Bzl)]-OH (disulfide 3-11; N-terminus assumed; SMILES CC[C@H](C)[C@H](NC(=O)CNC)C(=O)N[C@H]1CSSC(C)(C)[C@@H](C(=O)N[C@H](C(=O)N2CCC[C@H]2C(=O)N[C@@H](Cc2cn(Cc3ccccc3)cn2)C(=O)O)[C@@H](C)CC)NC(=O)[C@H]([C@@H](C)CC)NC(=O)[C@@H]2CCCN2C(=O)[C@@H]2CCCN2C(=O)[C@H](CC(C)(C)C)NC(=O)[C@H](CO)NC(=O)[C@H](CCCNC(=N)N)NC(=O)[C@H](CO)NC1=O) [Example 447: ((N-Me)G)-IC+SRS-((tBu)A)-PPI-(Pen)+IP-((1-Bn)H)-OH]
18 | 5.8 nM | 230 nM | [Sar]ICSRSLP[Oic]I[Pen]IP[X8]-OH (disulfide 3-11; N-terminus assumed; SMILES CC[C@H](C)[C@H](NC(=O)CNC)C(=O)N[C@H]1CSSC(C)(C)[C@@H](C(=O)N[C@H](C(=O)N2CCC[C@H]2C(=O)N[C@H](CCC(=O)O)CC(C)C)[C@@H](C)CC)NC(=O)[C@H]([C@@H](C)CC)NC(=O)[C@@H]2C[C@@H]3CCCC[C@@H]3N2C(=O)[C@@H]2CCCN2C(=O)[C@H](CC(C)C)NC(=O)[C@H](CO)NC(=O)[C@H](CCCNC(=N)N)NC(=O)[C@H](CO)NC1=O) [Example 450: ((N-Me)G)-IC+SRSLP-(Oic)-I-(Pen)+IP-((R)-4-Amino-6-methylheptanoic acid)-OH]
19 | 6.9 nM | 12 nM | [Tranexamic]ICSRS[tBuAla]PPI[Pen]IP[TTDS]-NH2 (disulfide 3-11) [Example 429: (Tranexamic)-IC+SRS-((tBu)A)-PPI-(Pen)+IP-(TTDS)-NH2]
